What was measured:
Assay in all cases: purified protein
purified protein [1] = substrate: COc1cc(C(=O)C(C)=O)ccc1O; format: biochemical, Novosphingobium aromaticivorans; details: 0.1 mM NADH, 25 mM Tris-HCl pH 8, 25 mM NaCl, reduction of Cα ketone
purified protein [2] = substrate: COc1cc(C(O)C(C)O)ccc1O; format: biochemical, Novosphingobium aromaticivorans; details: 0.1 mM NAD+, 0.1 μM enzyme, 25 mM Tris-HCl pH 8, 25 mM NaCl, oxidation
purified protein [3] = substrate: COc1cc(C(O)C(CO)Oc2ccccc2OC)ccc1O; details: 0.1 mM NAD+, 0.1 μM enzyme, 25 mM Tris-HCl pH 8, 25 mM NaCl, oxidation

Protein | Km (purified protein [1]; 0.01 μM enzyme) | kcat (purified protein [1]; 0.01 μM enzyme) | Km (purified protein [2]) | kcat (purified protein [2]) | Km (purified protein [3]) | kcat (purified protein [3]) | Km (purified protein [1]; 0.1 μM enzyme) | kcat (purified protein [1]; 0.1 μM enzyme)
LigL (Novosphingobium aromaticivorans DSM 12444) (protein) MGIETFAGRTAFVTGGASGIGLGIVKALARRDAFVVIADMRTDHISRALKALASAGLGESVAAVELDVTDRAAYASMARRMDEEFGGIDVLVNNAGVGVEGPILQATYPDWDFGLGVNLGGVVNGLQAMLPQMIAHGRGGHVVNTASLAATVVMPGHLAIYAAGKAAVLNLTENMRADLAGRGIGSSVLCPGFVRSNIHEAARNRPAHLREGSGFAASEQALSMRETGSEWMDPDAVGEMVADAILADQLYVITHGEFANRMRERAEALLAATPVCEMQF | 3.4 mM | 1.44 s⁻¹ | 1.53 mM | 0.03 s⁻¹ | 0.44 mM | 0.12 s⁻¹ |  | 
LigD (Novosphingobium aromaticivorans DSM 12444) (protein) MQSFENEIAFITGGASGAGFGQAQVFGRAGAKIVVADVRAEAVERAVAALKAEGIVAHGLVLDITDRQAYAGAADEVEQVFGAAPTLLFNTAGVNSFGPVEDTSYDDFDWIVGVNLGGVINGMVTFVPRMIASGRPGHIVTTSSLGGLMGSALAAPYSAAKAAVINLMESYRQGLDKHGIGVSVLCPANIKSNIAEASRLRPAQFGKSGYVENEESIASLHSIHQHGMDPVELAEHVKAGIVANQLYIIPYPEAKDGLRQHFDAIVDAVLPLEADPEGARARTEALNAWAADRARVFMEKNAAQKA |  |  |  |  | 0.07 mM | 0.2 s⁻¹ | 0.41 mM | 0.02 s⁻¹
LigN (Novosphingobium aromaticivorans DSM 12444) (protein) MQNLPGKTAFVTGGASGIGLGIAKALLGAGMNVTIADIRQDHLDSAVAELGGGERVLAVKLDVTNRDQFAKAADATEAKFGKIHLLVNNAGVAVVGPTELATFADWDWVMGVNVNGTINGIVTILPRILAHGEGGHIVCTASMSALVPVAGTTIYSAGKAAVTAMMECMRPELEGRGVICSAFCPGAVQSNIADAAKTRPAELADTGYAEADKRRAAGGNFMHLYQTKEQVGERVLEGILNDELYILTHAEFLTGVEERGLATTAAVQTHLPENPEYKETFAALFRNPAITDEIARQNKLKETRKAGVEA |  |  |  |  | 0.08 mM | 0.30 s⁻¹ | 0.31 mM | 0.1 s⁻¹

Source: publication PMC8612281, “Aromatic Dimer Dehydrogenases from Novosphingobium aromaticivorans Reduce Monoaromatic Diketones” (Applied and Environmental Microbiology, 2021)
